The target in experiment [1] is T1, purified HLA-DRB1*0802 molecule (human).
T1 construct: Purified MHC class II molecule
Kind of experiment: peptide competition assay on purified MHC class II. An excerpt:
(§1) Results are expressed as the inverse of the IC₅₀ values measured in nM.

Experiment [2] concerns the target T2, purified HLA-DRB1*1101 molecule (human).
T2 construct: Purified MHC class II molecule
Kind of experiment: peptide competition assay on purified MHC class II.
From the text: as §1

For experiment [3], the target named is T3, purified HLA-DRB1*0301 molecule (human).
T3 construct: Purified MHC class II molecule
Kind of experiment: peptide competition assay on purified MHC class II.
From the text: as §1

Experiment [4] concerns the target T4, purified HLA-DRB1*1302 molecule (human).
T4 construct: Purified MHC class II molecule
Kind of experiment: peptide competition assay on purified MHC class II.
From the text: as §1

Experiment [5] has as its target T5, purified HLA-DRB1*0401 molecule (human).
T5 construct: Purified MHC class II molecule
Kind of experiment: peptide competition assay, displacement of radio-labelled peptide probe from purified MHC class II.
From the text: as §1

The target in experiment [6] is T6, purified HLA-DRB1*0404 molecule (human).
T6 construct: Purified MHC class II molecule
The description is as above.
From the text: as §1

Experiment [7] deals with T7, purified HLA-DRB1*0101 molecule (human).
T7 construct: Purified MHC class II molecule
The description is as above.
From the text: as §1

Square brackets hold non-standard residues; d marks the D form. Ends that are not written are not given here. Cit = NC(=O)NCCC[C@H](N)C(=O)O

B1: Vim 65-77, human vimentin peptide 65-77 (peptide)
peptide: SAVRARSSVPGVR
notes: Synthetic peptide (Genemed Synthesis); also called Vimentin 65-77; unmodified vimentin peptide
B1: the binding result in experiment [1], in experiment [2], in experiment [3] and in experiment [4] was “binds” each time.

B2: Vim R70Cit, altered human vimentin peptide 65-77 (peptide)
peptide: SAVRA[Cit]SSVPGVR
notes: Synthetic peptide; also called Vimentin R70Cit; citrulline containing vimentin peptide
As for B2, the “fold higher affinity compared to the unmodified peptide (Vim 65-77)” value is 90 fold in experiment [5], 20 fold in experiment [6] and 100 fold in experiment [7].

These data come from patent US20070292347A1 (LONDON HEALTH SCIENCES CENTRE RESEARCH, published 2007).
